Paper PMC9813592, “A genetic screen in Arabidopsis reveals the identical roles for RBP45d and PRP39a in 5’ cryptic splice site selection”

T1: RBP45d (His-RBP45d) (Arabidopsis thaliana, UniProt Q8VXZ9 1-425)
T1 sequence: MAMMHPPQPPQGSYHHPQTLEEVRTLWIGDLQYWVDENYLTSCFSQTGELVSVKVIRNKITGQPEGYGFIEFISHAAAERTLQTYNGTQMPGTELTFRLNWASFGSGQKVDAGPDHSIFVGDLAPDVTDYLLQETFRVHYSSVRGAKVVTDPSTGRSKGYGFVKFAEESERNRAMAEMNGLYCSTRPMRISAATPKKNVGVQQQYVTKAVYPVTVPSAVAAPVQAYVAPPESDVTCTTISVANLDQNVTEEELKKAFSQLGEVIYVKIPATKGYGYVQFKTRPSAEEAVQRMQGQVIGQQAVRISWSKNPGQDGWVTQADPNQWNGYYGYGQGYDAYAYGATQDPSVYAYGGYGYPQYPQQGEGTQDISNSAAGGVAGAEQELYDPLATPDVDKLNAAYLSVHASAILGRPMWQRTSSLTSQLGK


How the values were obtained:
[1] = biological target: T1, RBP45d (His-RBP45d); assay: EMSA; dose-dependent; REMSA; buffer, salt, pH and temperature not given in the material; unlabeled competitor up to at least 6 uM; conditions: protein: recombinant; tags: His (pET51b); label: 5'-Cy5; single strand
[2] = biological target: T1, RBP45d (His-RBP45d); assay: competition; unlabeled vs Cy5-SOT5-IN7; REMSA; buffer, salt, pH and temperature not given in the material; unlabeled competitor up to at least 6 uM; conditions: protein: recombinant; tags: His (pET51b); single strand

Binder | binding result [1] | binding result [2]
CUCAAUAUGAUAAAUUUUGUAAAUC (ssRNA) [Cy5-SOT5-IN7] | binds | –
CUCAAUAUGCCCGGCCGGGUAAAUC (ssRNA) [SOT5-IN7-M4-NL] | – | no binding
CUCAAUAUGGUAAAUUUUGUAAAUC (ssRNA) [SOT5-IN7-M1-NL] | – | binds
CUCAAUAUGAUAAAUUUUGUAAAUC (ssRNA) [SOT5-IN7-NL] | – | binds
CUCAAUAUGGCAAAUUUUGUAAAUC (ssRNA) [SOT5-IN7-M2-NL] | – | binds
